Data as given in patent US20030153012A1.

Assays:
[1] = biological target: hen egg white lysozyme (hen) (UniProt P00698); experiment: fluorescence at 535 nm, excitation at 480 nm, lysozyme 10 nM to 2 uM in 50 mM Tris-HCl, 150 mM NaCl, pH 7.5
[2] = biological target: hen egg white lysozyme (hen) (UniProt P00698); experiment: fluorescence emission, excitation at 469 nm, lysozyme at 100 nM and 1 uM, three preparations
[3] = biological target: hen egg white lysozyme (hen) (UniProt P00698); experiment: fluorescence emission after addition of lysozyme, excitation at 469 nm, several preparations

Sequence of UniProt P00698 (P00698 19-147 limits assumed): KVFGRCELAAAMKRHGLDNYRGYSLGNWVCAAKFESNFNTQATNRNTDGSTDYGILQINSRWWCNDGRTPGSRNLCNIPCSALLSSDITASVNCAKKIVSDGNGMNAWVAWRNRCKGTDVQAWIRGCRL

- increase of fluorescence intensity at saturation [1]: 91%
- maximum enhancement of fluorescence [2]: 27%
- fluorescence intensity at saturation relative to the free biosensor [3]: 1.26 times
B1: scFv-His6(VL-S93ANBD) conjugate (scFv)
scFv: EVKLQESGPGLVAPSQSLSITCTVSGFSLTGYGVNWVRQPPGKGLEWLGMIWGDGNTDYNSALKSRLSISKDNSKSQVFLKMNSLHTDDTARYYCARERDYRLDYWGQGTTVTVSSGGGGSGGGGSGGGGSDIELTQSPASLSASVGETVTITCRASGNIHNYLAWYQQKQGKSPQLLVYYTTTLADGVPSRFSGSGSGTQYSLKINSLQPEDFGSYYCQHFWCTPRTFGGGTKLEIKRPLEHHHHHH
modifications: chain 1 pos 224 (VL Cys93): Cys whose S-gamma is coupled to the fluorophore IANBD (ANBD adduct), written C
